In US20080267974A1 (SCHERING, published 2008):
Several values for one entry are separate records, joined by “and”; a condition that tells them apart may be missing. Identical values can stand only once. Like-named read-outs stand apart in the source and are kept apart here.

Key:
[1] = molecular target: T1, tumor necrosis factor alpha (TNFα) (human, UniProt P01375 77-233); experiment: affinity by IC50 ELISA (so named in paragraph 380)
[2] = molecular target: T1, tumor necrosis factor alpha (TNFα); experiment: Biacore (SPR); MAb captured by immobilised goat anti-human IgG polyclonal antibody, TNFα as analyte
[3] = molecular target: T1, tumor necrosis factor alpha (TNFα); experiment: affinity by IC50 ELISA (so named in paragraph 380); remark: listed apart in the source
[4] = molecular target: T1, tumor necrosis factor alpha (TNFα); experiment: affinity by IC50 ELISA (so named in paragraph 380); remark: listed apart in the source
[5] = molecular target: T1, tumor necrosis factor alpha (TNFα); experiment: affinity by IC50 ELISA (so named in paragraph 380); remark: listed apart in the source
[6] = molecular target: T1, tumor necrosis factor alpha (TNFα); experiment: affinity by IC50 ELISA (so named in paragraph 380); remark: listed apart in the source
[7] = molecular target: T1, tumor necrosis factor alpha (TNFα); experiment: cell-based or functional assay
[8] = molecular target: T1, tumor necrosis factor alpha (TNFα); experiment: affinity by IC50 ELISA (so named in paragraph 380); remark: listed apart in the source
[9] = molecular target: T1, tumor necrosis factor alpha (TNFα); experiment: affinity by IC50 ELISA (so named in paragraph 380); remark: listed apart in the source
[10] = molecular target: T1, tumor necrosis factor alpha (TNFα); experiment: affinity by IC50 ELISA (so named in paragraph 380); remark: listed apart in the source

T1 sequence (P01375 77-233 limits assumed): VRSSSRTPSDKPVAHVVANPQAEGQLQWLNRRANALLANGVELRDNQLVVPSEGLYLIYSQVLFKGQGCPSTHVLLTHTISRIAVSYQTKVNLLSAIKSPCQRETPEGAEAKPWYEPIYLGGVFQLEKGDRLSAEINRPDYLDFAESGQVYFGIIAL

Molecule: Humira® (antibody)
- Affinity [1]: 0.09 nM
- Ka [2]: 3.31e+10 M⁻¹
- Kd [2]: 0.0303 nM

B1: MAb 813 (antibody, V domains shown)
VH: EVQLLESGGGLIQPGGSLRLSCAASGFTVSSNYMSWVRQAPGKGLEWVSVIYSGGRTYYADSVKGRFTISRDSSKNTLYLQMNSLRAEDTAVYYCARNYYGSTYDYWGQGTLVTVSS
VL: EIVLTQSPVTLSVPPGERASLSCRASQNIYTAVAWYQQKPGQAPRLLIYGASTRATGIPARFSGGGSGTDYTLTISSLESEDFAVYHCQQYMSWPLTFGGGTKLEIK
notes: IgG1/kappa, CHO; also called H1192/L309
- Affinity [3]: 0.42 nM
- Affinity [4]: 0.42 nM

B2: MAb 1896 (antibody, V domains shown)
VH: EVQLVESGGGLIQPGGSLRLSCAVSGLNVSRDYMSWVRQAPGKGLEWISVIYRGGATMYADSVKGRFTISRDTSKNTVFLQMSRLKVADTAVYYCARNYYGSTLDYWGQGTLVTVSS
VL: EIVLTQSPVTLSVPPGERASLSCRASQNIYTAVAWYQQKPGQAPRLLIYNASTRATGIPARFSGGGSGTDYTLTISSLESEDFAVYHCQQWHSWPLTFGGGTKLEIK
notes: IgG1/kappa, CHO; also called H1685/L459
- Affinity [5]: 0.08 nM
- Affinity [6]: 0.08 nM
- Affinity [3]: 0.08 nM
- IC50, TNFα cytotoxicity assay (WEHI-13VAR cells) [7]: 0.79 nM and 0.9 nM

B3: MAb 1850 (antibody, V domains shown)
VH: EVQLLESGGGLIQPGGSLRLSCAASGFTVGNNYMSWVRQAPGKGLEWVSVIYSAGSTYYADSVKGRFIISRDNSKDTVYLQMNSLRVDDTAVYYCARNYYGSTHDYWGQGTLVTVSS
VL: EIVLTQSPVTLSVPPGERASLSCRASQNIYTAVAWYQQKPGQAPRLLIYGASTRATGIPARFSGGGSGTDYTLTISSLESEDFAVYHCQQWHSWPLTFGGGTKLEIK
notes: IgG1/kappa, CHO; also called H1727/L332
- Affinity [8]: 0.59 nM
- Affinity [3]: 0.59 nM

B4: MAb 1780 (antibody, V domains shown)
VH: EVQLVESGGGLIQPGGSLRLSCAVSGLNVSRDYMSWVRQAPGKGLEWISVIYRGGATMYADSVKGRFTISRDTSKNTVFLQMSRLKVADTAVYYCARNYYGSTLDYWGQGTLVTVSS
VL: EIVLTQSPVTLSVPPGERASLSCRASQNIYTAVAWYQQKPGQAPRLLIYGASTRATGIPARFSGGGSGTDYTLTISSLESEDFAVYHCQQWHSWPLTFGGGTKLEIK
notes: IgG1/kappa, CHO; also called H1685/L332
- Affinity [9]: 0.23 nM
- Affinity [6]: 0.23 nM
- Affinity [3]: 0.23 nM
- IC50, TNFα cytotoxicity assay (WEHI-13VAR cells) [7]: 1.6 nM and 3.18 nM

B5: MAb 1371 (antibody, V domains shown)
VH: EVQLVESGGGLIQPGGSLRLSCAVSGLNVSRDYMSWVRQAPGKGLEWISVIYRGGATMYADSVKGRFTISRDTSKNTVFLQMSRLKVADTAVYYCARNYYGSTHDYWGQGTLVTVSS
VL: EIVLTQSPVTLSVPPGERASLSCRASQNIYTAVAWYQQKPGQAPRLLIYGASTRATGIPARFSGGGSGTDYTLTISSLESEDFAVYHCQQWHSWPLTFGGGTKLEIK
notes: IgG1/kappa, CHO; also called H1596/L332
- Affinity [9]: 0.2 nM
- Affinity [6]: 0.2 nM
- Affinity [3]: 0.2 nM
- IC50, TNFα cytotoxicity assay (WEHI-13VAR cells) [7]: 2 nM and 3.08 nM

B6: MAb 1874 (antibody, V domains shown)
VH: EVQLLESGGGLIQPGGSLRLSCAASGFTVGNNYMSWVRQAPGKGLEWVSVIYSAGSTYYADSVKGRFIISRDNSKDTVYLQMNSLRVDDTAVYYCARNYYGSTMDYWGQGTLVTVSS
VL: EIVLTQSPVTLSVPPGERASLSCRASQNIYTAVAWYQQKPGQAPRLLIYGASTRATGIPARFSGGGSGTDYTLTISSLESEDFAVYHCQQWHSWPLTFGGGTKLEIK
notes: IgG1/kappa, CHO; also called H1725/L332
- Affinity [8]: 0.38 nM
- Affinity [3]: 0.38 nM

B7: MAb 815 (antibody, V domains shown)
VH: EVQLLESGGGLIQPGGSLRLSCAASGFTVSSNYMSWVRQAPGKGLEWVSVIYSGGRTYYADSVKGRFTISRDSSKNTLYLQMNSLRAEDTAVYYCARNYYGSTYDYWGQGTLVTVSS
VL: EIVLTQSPVTLSVPPGERASLSCRASQNIYTAVAWYQQKPGQAPRLLIYGASTRATGIPARFSGGGSGTDYTLTISSLESEDFAVYHCQQYHAWPLTFGGGTKLEIK
notes: IgG1/kappa, CHO; also called H1192/L311
- Affinity [3]: 0.36 nM
- Affinity [4]: 0.36 nM

B8: MAb 1852 (antibody, V domains shown)
VH: EVQLLESGGGLIQPGGSLRLSCAASGFTVGNNYMSWVRQAPGKGLEWVSVIYSAGSTYYADSVKGRFIISRDNSKDTVYLQMNSLRVDDTAVYYCARNYYGSTLDYWGQGTLVTVSS
VL: EIVLTQSPVTLSVPPGERASLSCRASQNIYTAVAWYQQKPGQAPRLLIYGASTRATGIPARFSGGGSGTDYTLTISSLESEDFAVYHCQQWHSWPLTFGGGTKLEIK
notes: IgG1/kappa, CHO; also called H1729/L332
- Affinity [8]: 0.41 nM
- Affinity [3]: 0.41 nM

B9: MAb 855 (antibody, V domains shown)
VH: EVQLLESGGGLIQPGGSLRLSCAASGFTVSSNYMSWVRQAPGKGLEWVSVIYSGGRTYYADSVKGRFTISRDSSKNTLYLQMNSLRAEDTAVYYCARNYYGSTYDYWGQGTLVTVSS
VL: EIVLTQSPVTLSVPPGERASLSCRASQNIYTAVAWYQQKPGQAPRLLIYGASTRATGIPARFSGGGSGTDYTLTISSLESEDFAVYHCQQWHSWPLTFGGGTKLEIK
notes: IgG1/kappa, CHO; also called H1192/L332
- Affinity [3]: 0.25 nM
- Affinity [4]: 0.25 nM
- IC50, TNFα cytotoxicity assay (WEHI-13VAR cells) [7]: 3.5 nM

B10: MAb 1895 (antibody, V domains shown)
VH: EVQLVESGGGLIQPGGSLRLSCAVSGLNVSRDYMSWVRQAPGKGLEWISVIYRGGATMYADSVKGRFTISRDTSKNTVFLQMSRLKVADTAVYYCARNYYGSTHDYWGQGTLVTVSS
VL: EIVLTQSPVTLSVPPGERASLSCRASQNIYTAVAWYQQKPGQAPRLLIYNASTRATGIPARFSGGGSGTDYTLTISSLESEDFAVYHCQQWHSWPLTFGGGTKLEIK
notes: IgG1/kappa, CHO; also called H1596/L459
- Affinity [6]: 0.09 nM
- Affinity [3]: 0.09 nM
- IC50, TNFα cytotoxicity assay (WEHI-13VAR cells) [7]: 0.89 nM

B11: MAb 2060 (antibody, V domains shown)
VH: EVQLVESGGGLIQPGGSLRLSCAVSGLNVSRDYMSWVRQAPGKGLEWISVIYRGGVTMYADSVKGRFTISRDTSKNTVFLQMSRLKVADTAVYYCARNYYGSTLDYWGQGTLVTVSS
VL: EIVLTQSPATLSVSPGERASLSCRASQNIYTAVAWYQQKPGQAPRLLIYNASTRATGIPARFSGGGSGTDYTLTISSLESEDFAVYHCQQWHSWPLTFGGGTKLEIK
notes: IgG1/kappa, CHO; also called H1844/L471
- Affinity [3]: 0.02 nM
- IC50, TNFα cytotoxicity assay (WEHI-13VAR cells) [7]: 0.14 nM
- Affinity [10]: 0.02 nM

B12: MAb 2071 (antibody, V domains shown)
VH: EVQLVESGGGLIQPGGSLRLSCAVSGLNVSRDYMSWVRQAPGKGLEWISVIYRGGVTMYADSVKGRFTISRDTSKNTVFLQMSRLKVADTAVYYCARNYYGSTLDYWGQGTLVTVSS
VL: EIVLTQSPATLSVSPGERASLSCRASQNIYTAVAWYQQKPGQAPRLLIYNAATRATGIPARFSGGGSGTDYTLTISSLESEDFAVYHCQQWHSWPLTFGGGTKLEIK
notes: IgG1/kappa, CHO; also called H1844/L472
- Ka [2]: 1.77e+11 M⁻¹
- Kd [2]: 0.0057 nM
- koff [2]: 3.91e-05 s⁻¹
- kon [2]: 6.92e+06 M⁻¹ s⁻¹
- Affinity [3]: 0.01 nM
- IC50, TNFα cytotoxicity assay (WEHI-13VAR cells) [7]: 0.03 nM and 0.04 nM
- Affinity [10]: 0.01 nM

B13: MAb 1851 (antibody, V domains shown)
VH: EVQLLESGGGLIQPGGSLRLSCAASGFTVGNNYMSWVRQAPGKGLEWVSVIYSAGSTYYADSVKGRFIISRDNSKDTVYLQMNSLRVDDTAVYYCARNYYGSTFDYWGQGTLVTVSS
VL: EIVLTQSPVTLSVPPGERASLSCRASQNIYTAVAWYQQKPGQAPRLLIYGASTRATGIPARFSGGGSGTDYTLTISSLESEDFAVYHCQQWHSWPLTFGGGTKLEIK
notes: IgG1/kappa, CHO; also called H1728/L332
- Affinity [8]: 0.26 nM
- Affinity [3]: 0.26 nM

B14: MAb 2090 (antibody, V domains shown)
VH: EVQLVESGGGLIQPGGSLRLSCAVSGLNVSRDYMSWVRQAPGKGLEWISVIYRIGATMYADSVKGRFTISRDTSKNTVFLQMSRLKVADTAVYYCARNYYGSTLDYWGQGTLVTVSS
VL: EIVLTQSPATLSVSPGERASLSCRASQNIYTAVAWYQQKPGQAPRLLIYNAATRATGIPARFSGGGSGTDYTLTISSLESEDFAVYHCQQWHSWPLTFGGGTKLEIK
notes: IgG1/kappa, CHO; also called H1813/L472
- Ka [2]: 1.2e+11 M⁻¹
- Kd [2]: 0.0084 nM
- koff [2]: 5.42e-05 s⁻¹
- kon [2]: 6.49e+06 M⁻¹ s⁻¹
- Affinity [3]: 0.02 nM
- IC50, TNFα cytotoxicity assay (WEHI-13VAR cells) [7]: 0.09 nM
- Affinity [10]: 0.02 nM
